Here are results for 27 sequences from the supplement of paper PMC9170038.

The subject of this data set is MS2 coat protein. Kind of data set: apparent KD of MS2 coat protein; designed switch direction (-1 OFF switch, 1 ON switch): 1; higher = weaker reporter binding. The method in brief:
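Stalled E. coli RNA polymerase transcribed designed RNA switches on Illumina chips, which were then titrated with SNAP-549-labelled MS2 coat protein, doubling from 0.7 or 1.5 nM to 3 µM. Steps lasted from 0.8–1.5 h at the lowest concentration to 10–20 min at the highest. The apparent KD is each design's median over clusters of curve-fitted normalised fluorescence.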

Where [1] appears, read: input ligand: microRNA oligo, concentration not stated.
The mark [2] stands for this setting: Eterna round: R95, input ligand: FMN 200 uM.
The mark [3] stands for this setting: Eterna round: R95, input ligand: microRNA oligo, concentration not stated.
Where [4] appears, read: Eterna round: R95, input ligand: none.

“AUUAUUUAUGCAGGAUAUGAUUAACAUGAGGAUCACCCAUGUGGUGUUGUGAGUAAGGAGAGUGAUCAGAAGGGCAUUUUUUUU [JMF's solution 22] (Eterna round: R96, puzzle: Same State NG 2)”: the “apparent KD of MS2 coat protein” value stood at 673 nM (input ligand: FMN 200 uM), 377 nM under setting [1] and 447 nM (input ligand: none).

Take “UAAAUGAAGUAAGGAUAUACAUGAGGAUCACUCGUAGAAGGUACUAUACAUGAGGAUCACCCAUGUGCCGGUCAGAAGACUGGA [Mat - Same State NG 1 - JL mod - D6] (Eterna round: R96, puzzle: Same State NG 1)”: the “apparent KD of MS2 coat protein” value (input ligand: FMN 200 uM) came out at 804 nM, the “apparent KD of MS2 coat protein” value under setting [1] is 533 nM and the “apparent KD of MS2 coat protein” value (input ligand: none) was 943 nM.

As for “GGAGCCAAGGCAGGAUAUUCAUAUUAAAUGACAUGAGGAUCACCCAUGUUGGCCAGAAGGCCAUGGGAGAAGGGCCAUGGCUCG [Xeonanis - 13 mod23] (Eterna round: R96, puzzle: Same State NG 2)”, the “apparent KD of MS2 coat protein” value is, setting by setting: (input ligand: FMN 200 uM) 41.3 nM; under setting [1], 127 nM; (input ligand: none) 166 nM.

Take “UGAAUGGUGAUAGGAUAUACAUGAGGAAUCCUCGUAGAAGGAUCACGACAUGAGGAUCACCCAUGUAGCCGUCCGUAGACGGCU [salish99_SSNG1_r04_003] (Eterna round: R96, puzzle: Same State NG 1)”: the “apparent KD of MS2 coat protein” value is, setting by setting: (input ligand: FMN 200 uM) 192 nM; under setting [1], 75.9 nM; (input ligand: none) 255 nM.

On to “GUGGUCCUCACAGGAUAUCAGCGGCCUUCACGCUGAGAAGGGUGACUGGGCUACAAGGCUAUAGACAUGAGGAUCACCCAUGUA [Direbe] (Eterna round: R96, puzzle: Same State NG 1)”, for which the “apparent KD of MS2 coat protein” value (input ligand: FMN 200 uM) was 194 nM, the “apparent KD of MS2 coat protein” value under setting [1] worked out at 110 nM and the “apparent KD of MS2 coat protein” value (input ligand: none) turned out to be 194 nM.

Regarding “GUUAUACAUGAGGAUCACCCAUGUCAAUGUAGUCGAGGAUAUGGGUAGCUAUGAGGCGUACUAGAAGGCGAGGAGU [JL-ss1-3.16 ViennaUCT mod] (Eterna round: R96, puzzle: Same State 1)”, the “apparent KD of MS2 coat protein” value (input ligand: FMN 200 uM) stood at 503 nM, the “apparent KD of MS2 coat protein” value under setting [1] was determined as 246 nM and the “apparent KD of MS2 coat protein” value (input ligand: none) came out at 477 nM.

As to “AGUCCAGCGAAAGCUGGACAAAAGCAUGUACAUGAGGAUCACCCAUGUUCAUGUGCAAGCUUUUUGCUCGUCUUAAA [JL mod - D95 - 4] (puzzle: Sensor for hsa-mir-208a)”, the “apparent KD of MS2 coat protein” value under setting [2] came to 49.2 nM, the “apparent KD of MS2 coat protein” value under setting [3] was determined as 9.36 nM and the “apparent KD of MS2 coat protein” value under setting [4] was 58.9 nM.

Consider “GCUAGGAAUAAAGCCAACAUGAGGAUCACCCAUGUAUGUUGGUAGGAUAUCGUAUGCAAAGCAUACGAGAAGGGCUAACCUAGC [Mat - Same State NG 3 - JL Mod - D69] (Eterna round: R96, puzzle: Same State NG 3)”, for which the “apparent KD of MS2 coat protein” value was found to be 71.4 nM (input ligand: FMN 200 uM), 49.5 nM under setting [1] and 64.8 nM (input ligand: none).

With “CAGCGCUGUCGAGAGGAUAUGCGGUGAUGGACAUGAGGAUCACCCAUGUUAGCGACAGCAUUACGGUAGAAGGCUUCACAGCUGC [Soteed Omei mod 15] (puzzle: Same State 2)”, the “apparent KD of MS2 coat protein” value turned out to be 61 nM under setting [2], 33.3 nM under setting [3] and 41.8 nM under setting [4].

In the case of “GAAAAACAUGAGGAUCACCCAUGUAGAAAUAUGGGAGGAUAUACAAAGUCGAAAGACAAAGUAGAAGGCCUAAAAG [Mat - Same State 1 - Eli mod - D2] (Eterna round: R96, puzzle: Same State 1)”, the “apparent KD of MS2 coat protein” value under setting [1] was determined as 96.8 nM.

On to “AAAAUGUGAUGUUACAUGAGGAUCACCCAUGUAGUGACAACUAAGGAUAUCUGAAAAAAAGGAGAGGAGAAGGUAGGAUCACAA [AK SSNG3-V2-16.1] (Eterna round: R96, puzzle: Same State NG 3)”, for which the “apparent KD of MS2 coat protein” value (input ligand: FMN 200 uM) was 25.7 nM, the “apparent KD of MS2 coat protein” value under setting [1] is 26.4 nM and the “apparent KD of MS2 coat protein” value (input ligand: none) turned out to be 33.2 nM.

For the sequence “UUGUGUUUGCGAGGAUAUCGUUUGUUGAAGUUACGAGAAGGCGCUCUCAUUACAUGAGGAUCACCCAUGUCUUUGAUGCAUGAU [JR_SSNG1_Sub071] (Eterna round: R96, puzzle: Same State NG 1)”, the “apparent KD of MS2 coat protein” value by setting is: (input ligand: FMN 200 uM) 54.7 nM; under setting [1], 44.5 nM; (input ligand: none) 68.2 nM.

As for “GGUCGGAACCACAUGAGGAUCACCCAUGUUCCGGAAACGGCGCAGGAUAUCUGUCCGAAAAGGUCAGAGAAGGGUGAACCGACC [Fiskers NG3ss - 78] (Eterna round: R96, puzzle: Same State NG 3)”, the “apparent KD of MS2 coat protein” value (input ligand: FMN 200 uM) is 462 nM, the “apparent KD of MS2 coat protein” value under setting [1] was 314 nM and the “apparent KD of MS2 coat protein” value (input ligand: none) came out at 236 nM.

In the case of “ACGCAAAAUGGAGGAUAUGGAGCCUUAUUGGCUCCAGAAGGUCAAAACAUGAGGAUCACCCAUGUGCGGUGGUCUAAUGACCAC [Eli NG1ss - 46] (Eterna round: R96, puzzle: Same State NG 1)”, the “apparent KD of MS2 coat protein” value came out at 41.5 nM (input ligand: FMN 200 uM), 109 nM under setting [1] and 172 nM (input ligand: none).

In the case of “GUUAAACAUGAGGAUCACCCAUGUCAAUGUAGUCGAGGAUAUGGGCAGCUAUGAGGCGUACUAGAAGGCGAUGAGU [Mat - Same State 1 - Mod of JL - D14] (puzzle: Same State 1)”, the “apparent KD of MS2 coat protein” value reads like this: under setting [2], 38.6 nM; under setting [3], 133 nM; under setting [4], 150 nM.

In the case of “GGAGCCGGCCUAGGAUAUUUCAUGAAAAAACAUGAGGAUCACCCAUGUAGGCCAGAAGGCCUUGGGAAGAAGGAGGUCGGCUCC [Loop Effect - G24] (Eterna round: R96, puzzle: Same State NG 2)”, the “apparent KD of MS2 coat protein” value is, setting by setting: (input ligand: FMN 200 uM) 32.1 nM; under setting [1], 151 nM; (input ligand: none) 472 nM.

In the case of “AAAGGAUGAUGUUACAUGAGGAUCACCCAUGUAGUGAUAACUAAGGAUAUCUGUUAAACAAGUUAAGAGAAGGUAGGAUCAUUA [AK SSNG3-V2-8] (Eterna round: R96, puzzle: Same State NG 3)”, the “apparent KD of MS2 coat protein” value reads like this: (input ligand: FMN 200 uM) 42.8 nM; under setting [1], 35.6 nM; (input ligand: none) 60.8 nM.

As to “GAGGAACAGGCCAACAUGAGGAUCACCCAUGUCCUCGCAUUUCAGGAUAUCUGGAAGAAGAAGAAAGAGAAGGGAAGGUGAAGC [AK SSNG3-V2-34.1] (Eterna round: R96, puzzle: Same State NG 3)”, the “apparent KD of MS2 coat protein” value by setting is: (input ligand: FMN 200 uM) 114 nM; under setting [1], 101 nM; (input ligand: none) 112 nM.

With “UAUCCAUAGAUAGGAUAUUAGAGAACAUGAGGAUCACCCAUGUUUGGCUUGGUUUUAAGCCAAUCUAAGAAGGAUCUUGAUGAA [SameState NG2 #10] (Eterna round: R96, puzzle: Same State NG 2)”, the “apparent KD of MS2 coat protein” value reads like this: (input ligand: FMN 200 uM) 22.1 nM; under setting [1], 66.5 nM; (input ligand: none) 72.1 nM.

Take “AAAGUACAUGAGGAUCACCCAUGUCCAAAGAAGUAAGGAUAUACGGAAAGAAAAGAAAAUGUAGAAGGUACAAGAA [Same State 1 #3] (puzzle: Same State 1)”: the “apparent KD of MS2 coat protein” value runs as follows: under setting [2], 33 nM; under setting [3], 65.8 nM; under setting [4], 57.6 nM.

On to “GUUCCAAGGUGAGGAUAUGCAGAGGAUCACCCUGUAGAAGGCAUCAGGUGAGGAUAUGCAGAGGAUCACCCUGUAGAAGGCAUC [pwkr ssNG DX.10] (Eterna round: R96, puzzle: Same State NG 1)”, for which the “apparent KD of MS2 coat protein” value reads like this: (input ligand: FMN 200 uM) 105 nM; under setting [1], 180 nM; (input ligand: none) 295 nM.

On to “UUAAUGAAGUAAGGAUAUACAUGAGGAUCUCUCGUAGAAGGUACUAUACAUGAGGAUCACCCAUGUGCCGGUCCGUAGACUGGA [JL SSNG1 1.04] (Eterna round: R96, puzzle: Same State NG 1)”, for which the “apparent KD of MS2 coat protein” value (input ligand: FMN 200 uM) was found to be 708 nM, the “apparent KD of MS2 coat protein” value under setting [1] is 180 nM and the “apparent KD of MS2 coat protein” value (input ligand: none) was 1280 nM.

With “GUUACAUGAGGAUCACCCAUGUAUGUGUGGGAGUAAGUGUCUUAGGAUAUCUAUCAUUUGAUUUAAGAGAAGGAAGAUUGUUGU [JMF's solution 94] (Eterna round: R96, puzzle: Same State NG 3)”, the “apparent KD of MS2 coat protein” value reads like this: (input ligand: FMN 200 uM) 116 nM; under setting [1], 96.1 nM; (input ligand: none) 115 nM.

For the sequence “UGUUGUUAAUUAGGAUAUGGGCACAUGAGGAUCACCCAUGUAUUGUCGAUGCUAUGUGGACACGUCUAGAAGGAAUGGCUAACA [SameState NG2 #90] (Eterna round: R96, puzzle: Same State NG 2)”, the “apparent KD of MS2 coat protein” value was found to be 72.9 nM (input ligand: FMN 200 uM), 88 nM under setting [1] and 112 nM (input ligand: none).

In the case of “AUUAUUAAUGCAGGAUAUGAUUAACAUGAGGAUCACCCAUGUGGUGUUGUGAGUAAGGAGAGUGAUCAGAAGGGCAUUUUUUUA [JMF's solution 18] (Eterna round: R96, puzzle: Same State NG 2)”, the “apparent KD of MS2 coat protein” value amounted to 653 nM (input ligand: FMN 200 uM), 440 nM under setting [1] and 479 nM (input ligand: none).

Consider “CUAGCGCAUGCAGGAUAUCUGGUGUAUGCCUCGAGAUAACAUGAGGAUCACCCAUGUCCGCUCAAAGAGAAGGGCAUGCAAAUG [Eternabot solution 8] (Eterna round: R96, puzzle: Same State NG 2)”, for which the “apparent KD of MS2 coat protein” value (input ligand: FMN 200 uM) is 1180 nM, the “apparent KD of MS2 coat protein” value under setting [1] came out at 177 nM and the “apparent KD of MS2 coat protein” value (input ligand: none) stood at 618 nM.

Regarding “AACAAUCUAUCUGAGGAUAUCAUGAUAUAAACAUGAGGAUCACCCAUGUGCAGGAAAACUGCAUAUGAGAAGGCAGAUAGAUUGA [salish99_ss2_r3_031] (puzzle: Same State 2)”, the “apparent KD of MS2 coat protein” value under setting [2] was 43 nM, the “apparent KD of MS2 coat protein” value under setting [3] amounted to 232 nM and the “apparent KD of MS2 coat protein” value under setting [4] stood at 118 nM.
